Results published in patent US11466260B2, “Thermostable haloarchaeal inorganic pyrophosphatase” (UNIVERSITY OF FLORIDA RESEARCH FOUNDATION, INCORPORATED, priority 2015, dated 2022).
Entries after “also recorded” stand apart in the source; their conditions may differ. Like-named read-outs stand apart in the source and are kept apart here.

How the values were obtained:
HvPPA = molecular target: T1, HvPPA (Haloferax volcanii, UniProt D4GT97); assay: Sodium fluoride-based inhibition of HvPPA; type: biochemical
T1 construct: thrombin-cleavage site (linker between His6 and HvPPA) (N); made in house; host or cells: Haloferax volcanii H26-pJAM2920
T1 sequence (D4GT97 1-177): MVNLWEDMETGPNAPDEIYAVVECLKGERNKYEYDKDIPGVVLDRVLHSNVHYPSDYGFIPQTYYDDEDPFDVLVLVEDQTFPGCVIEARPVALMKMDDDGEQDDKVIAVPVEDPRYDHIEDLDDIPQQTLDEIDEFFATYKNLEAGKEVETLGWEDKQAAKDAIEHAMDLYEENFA
Method: A) HvPPA (1.3 μg) was assayed in 1 ml reaction volume containing 1 mM PPi, 10 mM MgCl2, 3 M NaCl and 20 mM Tris-Cl buffer pH 7.5 supplemented with NaF as indicated. Reactions were monitored for 15 min at RT.
HvPPA-mediated hydrolysis of PPi to Pi was determined spectrophotometrically. Reagents were in nanopure water (Barnstead/Thermolyne Nanopure lab water system). Sodium pyrophosphate tetrabasic decahydrate (Sigma Aldrich) was used as a substrate. For kinetic measurements, reaction mixtures (500 μl total) contained 0.5-1 μg HvPPA and 1 mM PPi in high-salt buffer (3 M NaCl and 20 mM Tris-HCl, pH 8.5). Reactions were incubated at 42° C. for 1-3 min. Orthophosphate levels were determined by malachite green assay. Briefly, 2.5 ml of 14% (w/v) (NH4)2MoO4 and 0.2 ml of 11% (v/v) TWEEN 20 ® (Polyoxyethylene sorbitan monolaurate) were added into a 10-ml color reagent I (containing 1.67 ml conc. sulfuric acid, 8.33 ml nanopure H2O, and 12.22 mg malachite green). In triplicate, 50 μl of the color reagent was mixed with 200 μl of the reaction mixture and incubated at room temperature for 10 min. The formation of (MG^+)(H2PMo12O40) (where MG^+ represents ionized malachite green) was monitored at A630. A less sensitive malachite green assay was also used in which reaction aliquots (50 μl) were mixed with 250 μl color reagent II and 10 μl 1.5% (v/v) TWEEN 20 ® (Polyoxyethylene sorbitan monolaurate) in triplicate; product formation was immediately monitored at A650. Color reagent II was generated by mixing 1 volume of 4.2% (w/v) (NH4)2MoO4 in 5 N HCl with 3 volumes of 0.2% (w/v) malachite green; after 30 minutes, the solution was filtered with a 0.45 μm filter and stored at room temperature. Freeze-dried KH2PO4 was used as the standard. Assay mixtures with PPi minus HvPPA were used for individual background subtraction. All proteins used in this assay were buffer-exchanged with Tris-high-salt buffer in nanopure H2O prior to use. All experiments were performed in triplicate and the mean±standard deviation (S.D.) was calculated.

[1] = Coupled assay of ubiquitin-like protein adenylation; type: biochemical, Haloferax volcanii; conditions: UbaA and HvPPA with ATP and SAMP1, 2 M NaCl, 42° C.
Method: FIGS. 7A-7B. on Haloferax volcanii inorganic phyrophosphatase (HvPPA) activity solvent and coupled adenylation assay at high temperature and low water activity. A) Schematic of the coupled assay. Adenylation of the ubiquitin-like SAMP by the E1-like enzyme (UbaA) was monitored by HvPPA mediated hydrolysis of the PPi (P2O7^4−) by-product to 2 Pi (2 moles HPO4^2−) at 50° C. B) Generation of Pi correlated with the addition of ATP, UbaA, HvPPA and SAMP1 to the assay buffer. ΔGG, C-terminal diglycine residue deletion.
UbaA-mediated hydrolysis of ATP to AMP and PPi in the presence of the ubiquitin-like SAMP1 was monitored by coupled assay with HvPPA. Proteins were buffer-exchanged with HEPES-salt buffer in Nanopure H2O prior to use. Reaction mixtures (500 μl total) containing 20 μM UbaA, 20 μM SAMP1, 0.5 μM HvPPA, 2.5 mM nucleotide, 2.5 mM MgCl2, 50 μM ZnCl2 in high-salt buffer (2 M NaCl and 50 mM HEPES in Nanopure H2O, pH 7.5) were incubated at 37-42° C. for 1 h. Nucleotides were ATP, AMP, ADP, AMP-PNP, CTP, GTP, TTP and UTP. Proteins were removed by Ultracel-3 centrifugal filtration prior to determining orthophosphate levels by malachite green assay modified as described above. Assay mixtures with nucleotide alone were used for individual background subtraction.

[2] = PPi assay: HvPPA-mediated hydrolysis of PPi to Pi (malachite green); type: biochemical, Haloferax volcanii; conditions: 25° C.
[3] = as above; type: biochemical, Haloferax volcanii; conditions: for Temp., optimum: 20 mM Tris-Cl pH 8, 3 M NaCl; for Cation-dependence: EDTA-treated enzyme, 20 mM Tris-Cl pH 8, 2 M NaCl
Method: FIGS. 4A-4D. Effect of pH, temperature, salt and divalent cations on Haloferax volcanii inorganic phyrophosphatase (HvPPA) activity. A-C) HvPPA was equilibrated for 10 min at the pH, temperature, and NaCl concentrations indicated prior to the addition of PPi substrate (100 μM). MgCl2 (10 mM) was included in the activity assays. For pH optimum, assays were supplemented with 3 M NaCl and included 20 mM buffers of sodium acetate at pH 4-5, MES at pH 6-6.5, Tris-Cl at pH 7-9 and CAPS at pH 10. For temperature optimum assays, reactions were in 20 mM Tris-Cl pH 8 supplemented with 3 M NaCl. For salt optimum, HvPPA was diluted from 20 mM Tris-Cl pH 8 containing 3 m NaCl into the same buffer with NaCl concentrations as indicated. D) To test the influence of cations, HvPPA was dialyzed sequentially against 500 ml of buffer (20 mM Tris-Cl pH 8, 2 M NaCl and 1 μM EDTA) (4 h at 4° C.) and the same buffer with EDTA omitted (4 h at 4° C.). Reactions for panel D contained HvPPA (0.93 μg), 20 mM Tris-Cl pH 8, 2 M NaCl and divalent metal at the concentration indicated. Metals used were: CaCl2.2H2O, ZnCl2, CoCl2.6H2O, MnCl2.4H2O, NiCl2.6H2O and MgCl2.6H2O. Reactions were monitored for 10 min at RT unless otherwise indicated.
(§1) FIGS. 6A-6D. Effect of salt, solvent and temperature on Haloferax volcanii inorganic phyrophosphatase (HvPPA). A) HvPPA thermostability. HvPPA was incubated at 42° C. and 65° C. as indicated with enzyme at 0.093 mg/ml of buffer (20 mM Tris-Cl pH 8, 2.5 mM MgCl2 and 3 M NaCl). HvPPA was diluted to 0.28 μg per 100 μl buffer (with MgCl2 increased to 10 mM) and assayed by addition of 1 mM PPi substrate (10 min, RT). Activity is % relative to samples incubated on ice. B) HvPPA stability in 50% (v/v) solvent. HvPPA was incubated for 2 h (on ice) at 0.47 mg/ml buffer (20 mM Tris-Cl pH 8 and 2 M NaCl) supplemented with solvent as indicated. HvPPA was diluted to 2.4 μg per 100 μl buffer (20 mM Tris-Cl pH 8, 2.5 mM MgCl2 and 2 M NaCl) and assayed by addition of 50 μM PPi substrate (10 min, RT). Activity is % relative to samples incubated with no solvent. C) HvPPA activity in 25% (v/v) solvent. Reactions were 500 μl with 2.8 μg HvPPA, 1.5 M NaCl, 1.5 mM PPi, 10 mM MgCl2. Reaction occurred at 10 minutes at RT. D) HvPPA stability in salt. HvPPA was incubated for 2 h (on ice) at 0.3 mg per ml of buffer (20 mM Tris-Cl pH 8) supplemented with NaCl at the concentrations indicated. HvPPA was diluted to 0.87 μg per 100 μl reaction buffer as in FIG. 6B. Activity is % relative to samples incubated in buffer supplemented with 3M NaCl.
PPA activity monitored in Tris-salt buffer at 37° C. and pH 8.5 with 0.1 mM PPi for 10 min. U, units defined as μmol product/min. SD, standard deviation of three experiments.
HvPPA-mediated hydrolysis of PPi to Pi was determined spectrophotometrically. Reagents were in nanopure water (Barnstead/Thermolyne Nanopure lab water system). Sodium pyrophosphate tetrabasic decahydrate (Sigma Aldrich) was used as a substrate. For kinetic measurements, reaction mixtures (500 μl total) contained 0.5-1 μg HvPPA and 1 mM PPi in high-salt buffer (3 M NaCl and 20 mM Tris-HCl, pH 8.5). Reactions were incubated at 42° C. for 1-3 min. Orthophosphate levels were determined by malachite green assay. Briefly, 2.5 ml of 14% (w/v) (NH4)2MoO4 and 0.2 ml of 11% (v/v) TWEEN 20 ® (Polyoxyethylene sorbitan monolaurate) were added into a 10-ml color reagent I (containing 1.67 ml conc. sulfuric acid, 8.33 ml nanopure H2O, and 12.22 mg malachite green). In triplicate, 50 μl of the color reagent was mixed with 200 μl of the reaction mixture and incubated at room temperature for 10 min. The formation of (MG^+)(H2PMo12O40) (where MG^+ represents ionized malachite green) was monitored at A630. A less sensitive malachite green assay was also used in which reaction aliquots (50 μl) were mixed with 250 μl color reagent II and 10 μl 1.5% (v/v) TWEEN 20 ® (Polyoxyethylene sorbitan monolaurate) in triplicate; product formation was immediately monitored at A650. […]

[4] = type: physicochemical, Haloferax volcanii
Method: as §1

[5] = cited from earlier work; for Vmax: highest reported

F [NaF, sodium fluoride]
Ki (HvPPA; pH 7.5): 200 µM | Ki (HvPPA; pH 8.5): 1800 µM

B1: HvPPA: Class A type inorganic pyrophosphatase from Haloferax volcanii, amino acid sequence of SEQ ID NO: 2 (protein, listed as Haloferax volcanii)
chain: MVNLWEDMETGPNAPDEIYAVVECLKGERNKYEYDKDIPGVVLDRVLHSNVHYPSDYGFIPQTYYDDEDPFDVLVLVEDQTFPGCVIEARPVALMKMDDDGEQDDKVIAVPVEDPRYDHIEDLDDIPQQTLDEIDEFFATYKNLEAGKEVETLGWEDKQAAKDAIEHAMDLYEENFA
Pi detected in coupled adenylation assay [1]: Significant levels of Pi were detected | Vmax [2]: 53 U · mg^−1 (25° C.) | Hill coefficient(s) (Mg^2+) ([2]; Mg^2+): 2.62 | Hill coefficient(s) (PPi) ([2]; PPi): 1.4 (PPi, 25° C.) | Substrate(s) hydrolyzed [3]: PPi | hydrolysis of nucleoside triphosphate (ATP, TTP, GTP or CTP) or nucleoside diphosphate (ADP) [3]: did not hydrolyze detectable levels | kcat [3]: 1050 s⁻¹ | activity of restored EDTA-treated enzyme versus untreated control ([3]; 2.5 mM MgCl2): half the activity of the untreated control | Temp., optimum [3]: 42 °C | Temp., optimum ([3]; listed as HvPPA hexamers): 42 °C | effect of NaCl on relative activity ([3]; 0.025 to 3 M NaCl): little, if any, effect; also recorded: fully active | optimal activity, basic pH ([3]; 3 M NaCl, 10 mM MgCl2, 100 μM PPi, RT): 8-9 pH | activity in organic solvent compared to no solvent controls ([3]; 25% (v/v) DMSO or DMF): 63-94% | activity in organic solvent compared to no solvent controls ([3]; 25% (v/v) methanol or ethanol): 110-150% | pH, optimum ([3]; 25° C.): pH 8.5 (25° C.) | Vmax ([3]; 25° C., PPi substrate): 53 U/mg | Vmax ([3]; 42° C.): 465 U · mg^−1 | Vmax ([3]; 42° C., PPi substrate): 465 U/mg | Cation-dependence [3]: partially restored by supplementation of the enzyme with Mn^2+ or Mg^2+ ions | Cation-dependence ([3]; listed as Haloferax volcanii): Mg^2+, Mn^2+ | Mg^2+ concentration for optimal PPi hydrolyzing activity ([3]; Mg^2+ added to reaction buffer): 20 to 40 mM | Hill coefficient(s) (Mg^2+) ([3]; Mg^2+, 25° C.): 2.6 (Mg^2+, 25° C.) | Hill coefficient(s) (PPi) ([3]; PPi, 42° C.): 2.1 (PPi, 42° C.) | effect of removal of divalent cations ([3]; dialysis against the metal chelator EDTA): inactivated | Km ([3]; for Mg^2+, 25° C., listed as Haloferax volcanii, read-out: Km Mg^2+): 13400 µM | Km ([3]; for Mg^2+, 25° C., read-out: Km Mg^2+): 13000 µM | Km ([3]; for PPi, 25° C., read-out: Km PPi): 260 µM | Km ([3]; for PPi, 42° C., read-out: Km PPi): 550 µM | Inhibitors (HvPPA): NaF | stability when stored in salt [4]: more stable | activity remained ([4]; after 2 h at 42° C., relative to samples on ice): 82% | Thermal inactivation (half-life) ([4]; buffer, pH 8): 2 h

B2: Pyrococcus horikoshii: Class A type inorganic pyrophosphatase of Pyrococcus horikoshii (protein, UniProt O59570 1-178, looked up)
Inorganic pyrophosphatase: MNPFHDLEPGPNVPEVVYALIEIPKGSRNKYELDKETGLLKLDRVLYTPFHYPVDYGIIPRTWYEDGDPFDIMVIMREPTYPLTIIEARPIGLFKMIDSGDKDYKVLAVPVEDPYFKDWKDISDVPKAFLDEIAHFFKRYKELEGKEIIVEGWEGAEAAKREILRAIEMYKEKFGKKE
Vmax ([5]; 60° C.): 930 U · mg^−1 | Km ([5]; for Mg^2+, read-out: Km Mg^2+): 300 µM | Hill coefficient(s) ([5]; in words): Cooperative | Substrate(s) hydrolyzed: ADP ([5]; substrate ADP): (2.9%)] | Substrate(s) hydrolyzed: ATP ([5]; substrate ATP): ATP (5.9%); ADP | Substrate(s) hydrolyzed: P3 ([5]; substrate P3): 2.7%

B3: Methanothermobacter thermautotrophicus: Class A type inorganic pyrophosphatase of Methanothermobacter thermautotrophicus (Methanobacterium thermoautotrophicum) (protein, UniProt O26363 1-176, looked up)
Inorganic pyrophosphatase: MNLWKDIEPGPSVPEVVYAVVEIPKGSRNKYEYHKDLQAFALDRVLYSAVFYPAEYGIIPRTLYDDGDPMDILVLMDEPTFPGCIIESRPIGLLRMIDGGDQDDKILAVPVADPHFADVKDISDIPEHNLKEIANFFETYKKLEGKKTETLGWEGAEKAFEAVNHSIELYRKKYME
pH, optimum ([5]; 60° C.): pH 7.7 (60° C.) | Hill coefficient(s) (Mg^2+) [5]: 2.0 (Mg^2+) | Hill coefficient(s) (PPi) ([5]; PPi): 3.3 (PPi), | Km ([5]; for Mg^2+, read-out: Km Mg^2+): 4900 µM | Km ([5]; for PPi, read-out: Km PPi): 160 µM | Vmax [5]: 570 U · mg^−1

B4: Thermoplasma acidophilum: Class A type inorganic pyrophosphatase of Thermoplasma acidophilum (protein, UniProt P37981 1-179, looked up)
Inorganic pyrophosphatase: MESFYHSVPVGPKPPEEVYVIVEIPRGSRVKYEIAKDFPGMLVDRVLYSSVVYPVDYGLIPRTLYYDGDPMDVMVLISQPTFPGAIMKVRPIGMMKMVDQGETDNKILAVFDKDPNVSYIKDLKDVNAHLLDEIANFFSTYKILEKKETKVLGWEGKEAALKEIEVSIKMYEEKYGKKN
Vmax ([5]; 56° C.): 1100 U · mg^−1 | Hill coefficient(s) (Mg^2+) [5]: 1.8 (Mg^2+) | Km ([5]; for Mg^2+, read-out: Km Mg^2+): 1700 µM | Km ([5]; for PPi, read-out: Km PPi): 7 µM
